Laboratory results published in patent US12699101B2, “Maximizing hydrophobic peptide recovery using a mass spectrometry compatible surfactant” (Regeneron Pharmaceuticals, Inc., priority 2022, dated 2026).
Where no end group is shown, it is not given here.

Test: PRM target quantification of synthetic mAb peptide standards diluted with DDM, FA or cell digest matrix
Type: physicochemical
Details: 10 fmol/μl peptide mixture, triplicate; for Ratio of Average Peak Area DDM Diluted/FA Diluted: 0.015% DDM vs 0.1% FA (control); for Ratio of Average Peak Area Matrix Diluted/FA Diluted: complex HeLa cell lysate digest matrix vs 0.1% FA (control)
Protocol: HeLa cell lysate protein digests were diluted to 0.05 ng/μL by 0.1% FA or 0.015% DDM solution, and 0.2 ng (4 μL) was injected onto the LC-MS to simulate single cell sample analysis. Sixteen synthetic peptides from a mAb's constant region and CDR were diluted and mixed to a final concentration of 10 fmol/μL by 0.1% FA, 0.015% DDM solution or complex cell digest matrix. In reconstitution experiments, 20 μL of 500 fmol/μL BSA digests and 200 ng/μL HeLa digests were aliquoted into vials and dried in vacuo. Dried samples were reconstituted by 0.1% FA or 0.015% DDM solution. One picomole BSA digests and 100 ng HeLa digests were loaded onto the column for nanoLC-MS/MS analysis.
PRM target quantification was performed on an Orbitrap Exploris 480 mass spectrometer equipped with an UltiMate 3000 RSLCnano system and 75 μm ID×25 cm C18 column (CoAnn Technologies, 360 μm OD). A short gradient with a flow rate of 0.3 μL/min was set up as follows: 5% B at 0 min, 8% B at 3 min, 40% B at 20 min, and 95% B from 30-35 min. The m/z of the most intense surrogate peptide peak was selected for PRM analysis with 5 minutes windows. MS/MS spectra were acquired using HCD with a normalized collision energy of 30% at a resolution of 30K (m/z 200) and a maximum injection time of 100 ms.
Database searches for protein identification were performed using SEQUEST and Mascot embedded into Proteome Discoverer 2.2 (Thermo Fisher Scientific). The human UniProt target-decoy protein database including common contaminants was used for HeLa sample database searches. Precursor ion mass tolerance was set to 20 ppm and fragment ion mass tolerance was set to 0.02 Da. Trypsin was specified as the digestion enzyme during the database search with one missed cleavage allowed. Methionine oxidation (+16 Da) was selected as a variable modification and cysteine carbamidomethylation was chosen as a fixed modification for the normal (alkylated) digests. False discovery rates (FDRs) were set to 1% for peptide identification and 5% for protein identification. Peptide mapping and BSA sample data were analyzed using Protein Metrics Byonic™ (version 3.11.3) by searching the raw files against the mAb or BSA protein sequence. All peptide quantification was executed using Skyline Daily software (University of Washington, WA) by extracting the MS' peak area of all detected charge states. The three most intense fragment peaks free of interference were selected for PRM target quantification. Empower (Milford, MA) was employed to extract UV chromatogram peak areas. The peptide hydrophobicity was calculated using the Peptide Synthesis and Proteotypic Peptide Analyzing Tool from ThermoFisher Scientific (Waltham, MA). GraphPad Prism 9.0.2 (San Diego, CA) was used for correlation analysis and p-value calculation.
In order to optimize a method for characterizing peptides for PK studies, sixteen peptides from different mAb molecules, including 13 CDR peptides and three constant region peptides, were selected and synthesized. Information for the synthetic peptide standards, including stock concentration, dilution, hydrophobicity index value, and retention time is shown in Table 1. All synthetic peptide standards were diluted and mixed as a single peptide mixture with a final concentration of 10 fmol/μl using either a DDM solution, formic acid solution (control) or complex HeLa cell lysate digest matrix. PRM acquisition was then used to quantify the peak area of these 16 target peptides and compare results between different samples. Detailed PRM setting information is listed in Table 2 including m/z value and charge states of each target peptide. Each sample was analyzed in triplicate, and average peak areas for each peptide from the DDM prepared samples and matrix prepared samples were compared with the control samples.

Substance | Ratio of Average Peak Area DDM Diluted/FA Diluted | Ratio of Average Peak Area Matrix Diluted/FA Diluted
DIATYYCQQH [synthetic mAb CDR peptide standard] | 1.1 | 1.4
DNSLTAPYVFGTGTK [synthetic mAb CDR peptide standard] | 1.4 | 1.1
DTAVYYCASGS [synthetic mAb CDR peptide standard] | 0.9 | 0.6
DWNQNNWF [synthetic mAb CDR peptide standard] | 2.4 | 3.0
GLEWVAVISYDGSNK [synthetic mAb CDR peptide standard] | 10.3 | 4.7
LLIYAASNLETGVPSR (also: Arg16 stable isotope labeled, +10 Da) [synthetic mAb CDR peptide standard] | 5.5 | 2.7
LLIYDASNLK [synthetic mAb CDR peptide standard] | 1.2 | 1.4
LMIYDVSK [synthetic mAb CDR peptide standard] | 1.1 | 1.3
LSCAASGFTFSNYAMYWVR [synthetic mAb CDR peptide standard] | 29.4 | 9.2
LSCAASGITFSNAWMSWVR [synthetic mAb CDR peptide standard] | 37.9 | 16.9
NQVSLTCLVK [synthetic mAb constant region peptide standard] | 0.7 | 1.1
TNYLKPTHQTNTIIDVVLSPSH [synthetic mAb constant region peptide standard] | 18.4 | 32.1
TNYLTHR [synthetic mAb CDR peptide standard] | 1.7 | 0.4
VTISCTGSSSNIGTHY [synthetic mAb CDR peptide standard] | 1.1 | 1.4
VVSVLTVLHQDWLNGK [synthetic mAb constant region peptide standard] | 12.1 | 33.2
